Measurements reported in paper doi:10.1101/641415.
Blank lines part the entries; values can stand above or below the substance they belong to.

Columns and labels:
[1] = target: SeMet-labelled SiiA-PD (S. Typhimurium); assay: crystal structure
[2] = target: SiiA periplasmic domain (SiiA-PD) (S. Typhimurium); assay: SEC
[3] = target: SiiA-R162A (S. Typhimurium); assay: SEC
[4] = target: periplasmic region of SiiA (ppr-SiiA, aa 40-210) (S. Typhimurium); assay: SEC

- stoichiometry N [1]: 2
Substance: SeMet-labelled SiiA-PD (domain or fragment)

- stoichiometry N [2]: 2
Substance: SiiA periplasmic domain (SiiA-PD) (domain or fragment)

- stoichiometry N [3]: 2
Substance: SiiA-R162A (domain or fragment)

- stoichiometry N [4]: 2
Substance: periplasmic region of SiiA (ppr-SiiA, aa 40-210) (domain or fragment)
